# Laboratory results as given in publication PMC12119571, “The Porphyromonas gingivalis RNA-binding protein is required for growth in high levels of zinc and persistence with host cells”.
# T1: RbpPg1 (Porphyromonas gingivalis W83) (UniProt Q7MWI3)
# T1 sequence: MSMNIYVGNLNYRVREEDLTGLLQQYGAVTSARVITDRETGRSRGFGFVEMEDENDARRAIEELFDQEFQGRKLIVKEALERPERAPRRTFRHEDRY
# T2: RbpPg1 (Porphyromonas gingivalis W83, UniProt Q7MWI3 1-97)
# T2 sequence: T1 sequence
# Legend:
# [1] = tested on: RbpPg1 (Halo) (Porphyromonas gingivalis W83); assay: pull-down of total RNA, RNA-seq; conditions: EMSA: LightShift Chemiluminescent RNA EMSA kit, on ice 30 min, TBE 10% gel at 4 C (buffer in Suppl. Tables 3-5, not in the material); His pulldown: 1 h at 4 C …
# [2] = molecular target: T1, RbpPg1 (Porphyromonas gingivalis W83); assay: pull-down of total RNA, RNA-seq; conditions: EMSA: LightShift Chemiluminescent RNA EMSA kit, on ice 30 min, TBE 10% gel at 4 C (buffer in Suppl. Tables 3-5, not in the material); His pulldown: 1 h at 4 C …
# RbpPg1 = molecular target: T2, RbpPg1; assay: EMSA; shift reduced by unlabeled IRE RNA; EMSA: LightShift Chemiluminescent RNA EMSA kit, on ice 30 min, TBE 10% gel at 4 C (buffer in Suppl. Tables 3-5, not in the material); His pulldown: 1 h at 4 C; conditions: protein: recombinant; tags: His-tag (pET30a, NcoI/XhoI); label: 3' biotin; IRE stem loop (hairpin)
Molecule,binding signal (fold enrichment over HU-beta) [1],binding signal (fold enrichment over HU-beta) [2],binding result (RbpPg1)
PG2090 zinc efflux transcript,639,71.3,–
UCCUGCUUCAACAGUGCUUGGACGGAAC (structured_RNA) [IRE control RNA (LightShift kit)],–,–,binds
